Measured values published in paper PMC7960628.

Legend:
Assay in all cases: SEC; gel filtration chromatography of the Ni-NTA purified motif-foldon fusion proteins; trimer
[1] = target: 6xHis-(GPP)5GFQGEK(GPP)5-foldon
[2] = target: 6xHis-(GPP)5GPKGER(GPP)5-foldon
[3] = target: 6xHis-(GPP)5GSQGEK(GPP)5-foldon (mouse | not stated)

A stoichiometry N [1] of 3 was found for “6xHis-(GPP)5GFQGEK(GPP)5-foldon (designed binder)” in this work.

A stoichiometry N [2] of 3 was found for “6xHis-(GPP)5GPKGER(GPP)5-foldon (designed binder)” in this work.

A stoichiometry N [3] of 3 was found for “6xHis-(GPP)5GSQGEK(GPP)5-foldon (designed binder)” in this work.
